{"source": "patent US8785135B2", "about": "“Mutant G-protein coupled receptors and methods for selecting them” (Heptares Therapeutics Limited, priority 2007, dated 2014)", "molecules": {"B1": {"name": "A69L: NTR point mutant (protein, UniProt P20789 1-424, looked up, variant A69L)", "Neurotensin receptor type 1": "MHLNSSVPQGTPGEPDAQPFSGPQSEMEATFLALSLSNGSGNTSESDTAGPNSDLDVNTDIYSKVLVTLIYLALFVVGTVGNSVTAFTLARKKSLQSLQSTVHYHLGSLALSDLLILLLAMPVELYNFIWVHHPWAFGDAGCRGYYFLRDACTYATALNVASLSVERYLAICHPFKAKTLMSRSRTKKFISAIWLASALLAIPMLFTMGLQNRSGDGTHPGGLVCTPIVDTATVKVVIQVNTFMSFLFPMLVISILNTVIANKLTVMVHQAAEQGRVCTVGTHNGLEHSTFNMTIEPGRVQALRHGVLVLRAVVIAFVVCWLPYHVRRLMFCYISDEQWTTFLFDFYHYFYMLTNALFYVSSAINPILYNLVSANFRQVFLSTLACLCPGWRHRRKKRPTFSRKPNSMSSNHAFSTSATRETLY"}, "B2": {"name": "V313A: NTR point mutant (protein, UniProt P20789 1-424, looked up, variant V313A)", "Neurotensin receptor type 1": "B1 Neurotensin receptor type 1 with L69A, V313A"}, "B3": {"name": "G215A: NTR point mutant (protein, UniProt P20789 1-424, looked up, variant G215A)", "Neurotensin receptor type 1": "B1 Neurotensin receptor type 1 with L69A, G215A"}, "B4": {"name": "G306A: NTR point mutant (protein, UniProt P20789 1-424, looked up, variant G306A)", "Neurotensin receptor type 1": "B1 Neurotensin receptor type 1 with L69A, G306A"}, "B5": {"name": "V165A: NTR point mutant (protein, UniProt P20789 1-424, looked up, variant V165A)", "Neurotensin receptor type 1": "B1 Neurotensin receptor type 1 with L69A, V165A"}, "B6": {"name": "F342A: NTR point mutant (protein, UniProt P20789 1-424, looked up, variant F342A)", "Neurotensin receptor type 1": "B1 Neurotensin receptor type 1 with L69A, F342A"}, "B7": {"name": "R183A: NTR point mutant (protein, UniProt P20789 1-424, looked up, variant R183A)", "Neurotensin receptor type 1": "B1 Neurotensin receptor type 1 with L69A, R183A"}, "B8": {"name": "A90L: NTR point mutant (protein, UniProt P20789 1-424, looked up, variant A90L)", "Neurotensin receptor type 1": "B1 Neurotensin receptor type 1 with L69A, A90L"}, "B9": {"name": "L310A: NTR point mutant (protein, UniProt P20789 1-424, looked up, variant L310A)", "Neurotensin receptor type 1": "B1 Neurotensin receptor type 1 with L69A, L310A"}, "B10": {"name": "V309A: NTR point mutant (protein, UniProt P20789 1-424, looked up, variant V309A)", "Neurotensin receptor type 1": "B1 Neurotensin receptor type 1 with L69A, V309A"}, "B11": {"name": "M250A: NTR point mutant (protein, UniProt P20789 1-424, looked up, variant M250A)", "Neurotensin receptor type 1": "B1 Neurotensin receptor type 1 with L69A, M250A"}, "B12": {"name": "1253A: NTR point mutant, Ile 253 to Ala (protein, UniProt P20789 1-424, looked up, variant I253A)", "Neurotensin receptor type 1": "B1 Neurotensin receptor type 1 with L69A, I253A"}, "B13": {"name": "H103A: NTR point mutant (protein, UniProt P20789 1-424, looked up, variant H103A)", "Neurotensin receptor type 1": "B1 Neurotensin receptor type 1 with L69A, H103A"}, "B14": {"name": "T294A: NTR point mutant (protein, UniProt P20789 1-424, looked up, variant T294A)", "Neurotensin receptor type 1": "B1 Neurotensin receptor type 1 with L69A, T294A"}, "B15": {"name": "A73L: NTR point mutant (protein, UniProt P20789 1-424, looked up, variant A73L)", "Neurotensin receptor type 1": "B1 Neurotensin receptor type 1 with L69A, A73L"}, "B16": {"name": "A177L: NTR point mutant (protein, UniProt P20789 1-424, looked up, variant A177L)", "Neurotensin receptor type 1": "B1 Neurotensin receptor type 1 with L69A, A177L"}, "B17": {"name": "V229A: NTR point mutant (protein, UniProt P20789 1-424, looked up, variant V229A)", "Neurotensin receptor type 1": "B1 Neurotensin receptor type 1 with L69A, V229A"}, "B18": {"name": "L308A: NTR point mutant (protein, UniProt P20789 1-424, looked up, variant L308A)", "Neurotensin receptor type 1": "B1 Neurotensin receptor type 1 with L69A, L308A"}, "B19": {"name": "I260A: NTR point mutant (protein, UniProt P20789 1-424, looked up, variant I260A)", "Neurotensin receptor type 1": "B1 Neurotensin receptor type 1 with L69A, I260A"}, "B20": {"name": "E166A: NTR point mutant (protein, UniProt P20789 1-424, looked up, variant E166A)", "Neurotensin receptor type 1": "B1 Neurotensin receptor type 1 with L69A, E166A"}, "B21": {"name": "T179A: NTR point mutant (protein, UniProt P20789 1-424, looked up, variant T179A)", "Neurotensin receptor type 1": "B1 Neurotensin receptor type 1 with L69A, T179A"}, "B22": {"name": "D139A: NTR point mutant (protein, UniProt P20789 1-424, looked up, variant D139A)", "Neurotensin receptor type 1": "B1 Neurotensin receptor type 1 with L69A, D139A"}, "B23": {"name": "M293A: NTR point mutant (protein, UniProt P20789 1-424, looked up, variant M293A)", "Neurotensin receptor type 1": "B1 Neurotensin receptor type 1 with L69A, M293A"}, "B24": {"name": "S100A: NTR point mutant (protein, UniProt P20789 1-424, looked up, variant S100A)", "Neurotensin receptor type 1": "B1 Neurotensin receptor type 1 with L69A, S100A"}, "B25": {"name": "L111A: NTR point mutant (protein, UniProt P20789 1-424, looked up, variant L111A)", "Neurotensin receptor type 1": "B1 Neurotensin receptor type 1 with L69A, L111A"}, "B26": {"name": "L256A: NTR point mutant (protein, UniProt P20789 1-424, looked up, variant L256A)", "Neurotensin receptor type 1": "B1 Neurotensin receptor type 1 with L69A, L256A"}, "B27": {"name": "S182A: NTR point mutant (protein, UniProt P20789 1-424, looked up, variant S182A)", "Neurotensin receptor type 1": "B1 Neurotensin receptor type 1 with L69A, S182A"}, "B28": {"name": "K176A: NTR point mutant (protein, UniProt P20789 1-424, looked up, variant K176A)", "Neurotensin receptor type 1": "B1 Neurotensin receptor type 1 with L69A, K176A"}, "B29": {"name": "A356L: NTR point mutant (protein, UniProt P20789 1-424, looked up, variant A356L)", "Neurotensin receptor type 1": "B1 Neurotensin receptor type 1 with L69A, A356L"}, "B30": {"name": "F147A: NTR point mutant (protein, UniProt P20789 1-424, looked up, variant F147A)", "Neurotensin receptor type 1": "B1 Neurotensin receptor type 1 with L69A, F147A"}, "B31": {"name": "Wildtype NTR: rat neurotensin receptor, parent (protein)", "chain": "TSESDTAGPNSDLDVNTDIYSKVLVTAIYLALFVVGTVGNSVTAFTLARKKSLQSLQSTVHYHLGSLALSDLLILLLAMPVELYNFIWVHHPWAFGDAGCRGYYFLRDACTYATALNVASLSVERYLAICHPFKAKTLMSRSRTKKFISAIWLASALLAIPMLFTMGLQNRSGDGTHPGGLVCTPIVDTATVKVVIQVNTFMSFLFPMLVISILNTVIANKLTVMVHQAAEQGRVCTVGTHNGLEHSTFNMTIEPGRVQALRHGVLVLRAVVIAFVVCWLPYHVRRLMFCYISDEQWTTFLFDFYHYFYMLTNALFYVSSAINPILYNLVSANFRQVFLSTLACLCPGWRHRRKKRPTFSRKPNSMSSNHAFSTSATRETLY"}}, "note": "Numbering of substitutions follows the chain as printed. Names and notes keep the numbering of the source.", "data": [{"assay": "Thermostability of NTR and mutants (3H-neurotensin binding)", "assay_type": "physicochemical", "settings": "Ligand(+) format", "protocol": "(§1) FIG. 12 Flow chart showing the two different assay formats of ligand (+) and ligand (−) used to determine receptor thermostability.\n(§2) • 1. 340 site-directed mutants have been made between residues 61-400 of NTR. • 2. Initially, all of these mutants were assayed for thermostability using an assay measuring ^3H-neurotensin (agonist) binding after the heating step. […] Mutants tested for thermostability by heating in the absence of the agonist were re-tested using a slightly different assay where the mutants were heated in the presence of ^3H-neurotensin (Ligand(+) format in FIG. 12). […] All of these also have increased thermostability. • 5. Preferred combinations are • a. Nag7m F358A+A86L+I260A+F342A Tm 51° C. (neurotensin bound) • b. Nag7n F358A+H103A+I260A+F342A Tm 51° C. (neurotensin bound) • Wildtype NTR has a Tm of 35° C. with neurotensin bound.", "values": [{"molecule": "B1", "thermostability, heated in the presence of 3H-neurotensin": "improved thermostability"}, {"molecule": "B2", "thermostability, heated in the presence of 3H-neurotensin": "improved thermostability"}, {"molecule": "B3", "thermostability, heated in the presence of 3H-neurotensin": "improved thermostability"}, {"molecule": "B4", "thermostability, heated in the presence of 3H-neurotensin": "improved thermostability"}, {"molecule": "B5", "thermostability, heated in the presence of 3H-neurotensin": "improved thermostability"}, {"molecule": "B6", "thermostability, heated in the presence of 3H-neurotensin": "improved thermostability"}, {"molecule": "B7", "thermostability, heated in the presence of 3H-neurotensin": "improved thermostability"}, {"molecule": "B8", "thermostability, heated in the presence of 3H-neurotensin": "improved thermostability"}, {"molecule": "B9", "thermostability, heated in the presence of 3H-neurotensin": "improved thermostability"}, {"molecule": "B10", "thermostability, heated in the presence of 3H-neurotensin": "improved thermostability"}, {"molecule": "B11", "thermostability, heated in the presence of 3H-neurotensin": "improved thermostability"}, {"molecule": "B12", "thermostability, heated in the presence of 3H-neurotensin": "improved thermostability"}, {"molecule": "B13", "thermostability, heated in the presence of 3H-neurotensin": "improved thermostability"}, {"molecule": "B14", "thermostability, heated in the presence of 3H-neurotensin": "improved thermostability"}, {"molecule": "B15", "thermostability, heated in the presence of 3H-neurotensin": "improved thermostability"}, {"molecule": "B16", "thermostability, heated in the presence of 3H-neurotensin": "improved thermostability"}, {"molecule": "B17", "thermostability, heated in the presence of 3H-neurotensin": "improved thermostability"}, {"molecule": "B18", "thermostability, heated in the presence of 3H-neurotensin": "improved thermostability"}, {"molecule": "B19", "thermostability, heated in the presence of 3H-neurotensin": "improved thermostability"}, {"molecule": "B20", "thermostability, heated in the presence of 3H-neurotensin": "improved thermostability"}]}, {"assay": "Thermostability of NTR and mutants (3H-neurotensin binding)", "assay_type": "physicochemical", "settings": "heated in the absence of the agonist", "protocol": "as §1, §2", "values": [{"molecule": "B21", "thermostability, 3H-neurotensin (agonist) binding after the heating step": "small but significant increase in thermostability"}, {"molecule": "B22", "thermostability, 3H-neurotensin (agonist) binding after the heating step": "small but significant increase in thermostability"}, {"molecule": "B23", "thermostability, 3H-neurotensin (agonist) binding after the heating step": "small but significant increase in thermostability"}, {"molecule": "B24", "thermostability, 3H-neurotensin (agonist) binding after the heating step": "small but significant increase in thermostability"}, {"molecule": "B25", "thermostability, 3H-neurotensin (agonist) binding after the heating step": "small but significant increase in thermostability"}, {"molecule": "B26", "thermostability, 3H-neurotensin (agonist) binding after the heating step": "small but significant increase in thermostability"}, {"molecule": "B8", "thermostability, 3H-neurotensin (agonist) binding after the heating step": "small but significant increase in thermostability"}, {"molecule": "B27", "thermostability, 3H-neurotensin (agonist) binding after the heating step": "small but significant increase in thermostability"}, {"molecule": "B13", "thermostability, 3H-neurotensin (agonist) binding after the heating step": "small but significant increase in thermostability"}, {"molecule": "B28", "thermostability, 3H-neurotensin (agonist) binding after the heating step": "small but significant increase in thermostability"}, {"molecule": "B29", "thermostability, 3H-neurotensin (agonist) binding after the heating step": "small but significant increase in thermostability"}, {"molecule": "B30", "thermostability, 3H-neurotensin (agonist) binding after the heating step": "small but significant increase in thermostability"}]}, {"assay": "Thermostability of NTR and mutants (3H-neurotensin binding)", "assay_type": "physicochemical", "settings": "neurotensin bound", "protocol": "as §1, §2", "units": {"Tm": "°C"}, "values": [{"molecule": "B31", "Tm": 35}]}]}
